The target of experiment [1] is GRO-beta (human, UniProt P19875). The experiment is described as follows: ELISA. Background: In an ELISA, binding on a coated surface is turned into a signal by an enzyme label.
Experiment [2] has as its target T1, IL-8 (human, UniProt P10145). The experiment is described as follows: SPR, 37C, bivalent. (SPR reads the build-up and loss of mass on a sensor chip optically.)
Experiment [3] concerns the target GRO-alpha (human, UniProt P09341). The experiment is described as follows: ELISA.
Experiment [4] addresses IP-10 (human, UniProt P02778). The experiment is described as follows: ELISA.
In experiment [5] the target is T1, IL-8. The experiment is described as follows: SPR, 25C, bivalent.
The target of experiment [6] is T1, IL-8. The experiment is described as follows: SPR, 25C.
In experiment [7] the target is T1, IL-8. Briefly: SPR, 37C.

T1 sequence (P10145 28-99): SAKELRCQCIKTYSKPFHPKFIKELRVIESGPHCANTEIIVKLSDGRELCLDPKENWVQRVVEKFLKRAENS
IP-10, sequence (P02778 22-98): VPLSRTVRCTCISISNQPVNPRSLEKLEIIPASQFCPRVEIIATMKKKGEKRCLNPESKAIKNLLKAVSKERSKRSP
GRO-beta, sequence (P19875 35-107): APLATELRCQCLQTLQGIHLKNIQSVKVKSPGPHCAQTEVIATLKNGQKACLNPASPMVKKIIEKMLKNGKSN
GRO-alpha, sequence (P09341 35-107): as the sequence (P19875 35-107) above, with P2S, L3V, L20P, K27N, Q48R, M58I, K68N, N69S, G70D counted along it

B1: 10F8 IgG1,kappa (antibody, V domains shown)
VH: QVQLVESGGGVVQPGRSLRLSCTASGFTFSHYGMYWVRQAPGKGLEWVAVIWYDGSYEYNADSVKGRFTISRDNSKNTLYLQMNSLRAEDTAVYYCARDRVGLFDYWGQGTLVTVSS
VL: EIVLTQSPGTLSLSPGERATLSCRASQSISSSYLAWYQQKPGQAPRLLIYGPSSRATGIPDRFSGSGSGTDFTLTISRLEPEDFAVYYCQQYAGSLTFGPGTKVDIK
B1: the binding result in experiment [1], in experiment [3] and in experiment [4] was “no binding” each time. Further, the Kd was determined as 0.02 nM in experiment [2] and 0.01 nM in experiment [5].

B2: 10F8 Fab (antibody, V domains shown)
VH: QVQLVESGGGVVQPGRSLRLSCTASGFTFSHYGMYWVRQAPGKGLEWVAVIWYDGSYEYNADSVKGRFTISRDNSKNTLYLQMNSLRAEDTAVYYCARDRVGLFDYWGQGTLVTVSS
VL: EIVLTQSPGTLSLSPGERATLSCRASQSISSSYLAWYQQKPGQAPRLLIYGPSSRATGIPDRFSGSGSGTDFTLTISRLEPEDFAVYYCQQYAGSLTFGPGTKVDIK
With B2, the Kd in experiment [6] was 0.194 nM; in experiment [7], 0.372 nM.

The values are drawn from patent US20190248883 (published 2019).
